Laboratory results reported in patent US20080167229.
Where two headings read alike, the source gives them in different places.

B1: N-terminal cleavage product of c-Myc-tagged USP1 (rabbit reticulocyte lysate) (protein)
chain: MPGVIPSESNGLSRGSPSKKNRLSLKFFQKKETKRALDFTDSQENEEKASEYRASEIDQVVPAAQSSPINCEKRENLLPFVGLNNLGNTCYLNSILQVLYFCPGFKSGVKHLFNIISRKKEALKDEANQKDKGNCKEDSLASYELICSLQSLIISVEQLQASFLLNPEKYTDELATQPRRLLNTLRELNPMYEGYLQHDAQEVLQCILGNIQETCQLLKKEEVKNVAELPTKVEEIPHPKEEMNGINSIEMDSMRHSEDFKEKLPKGNGKRKSDTEFGNMKKKVKLSKEHQSLEENQRQTRSKRKATSDTLESPPKIIPKYISENESPRPSQKKSRVKINWLKSATKQPSILSKFCSLGKITTNQGVKGQSKENECDPEEDLGKCESDNTTNGCGLESPGNTVTPVNVNEVKPINKGEEQIGFELVEKLFQGQLVLRTRCLECESLTERREDFQDISVPVQEDELSKVEESSEISPEPKTEMKTLRWAISQFASVERIVGEDKYFCENCHHYTEAERSLLFDKMPEVITIHLKCFAASGLEFDCYGGGLSKINTPLLTPLKLSLEEWSTKPTNDSYGLFAVVMHSGITISSGHYTASVKVTDLNSLELDKGNFVVDQMCEIGKPEPLNEEEARGVVENYNDEEVSIRVGGNTQPSKVLNKKNVEAIGLLGG
B2: c-Myc-tagged USP1 synthesized in rabbit reticulocyte lysate (protein)
chain: MPGVIPSESNGLSRGSPSKKNRLSLKFFQKKETKRALDFTDSQENEEKASEYRASEIDQVVPAAQSSPINCEKRENLLPFVGLNNLGNTCYLNSILQVLYFCPGFKSGVKHLFNIISRKKEALKDEANQKDKGNCKEDSLASYELICSLQSLIISVEQLQASFLLNPEKYTDELATQPRRLLNTLRELNPMYEGYLQHDAQEVLQCILGNIQETCQLLKKEEVKNVAELPTKVEEIPHPKEEMNGINSIEMDSMRHSEDFKEKLPKGNGKRKSDTEFGNMKKKVKLSKEHQSLEENQRQTRSKRKATSDTLESPPKIIPKYISENESPRPSQKKSRVKINWLKSATKQPSILSKFCSLGKITTNQGVKGQSKENECDPEEDLGKCESDNTTNGCGLESPGNTVTPVNVNEVKPINKGEEQIGFELVEKLFQGQLVLRTRCLECESLTERREDFQDISVPVQEDELSKVEESSEISPEPKTEMKTLRWAISQFASVERIVGEDKYFCENCHHYTEAERSLLFDKMPEVITIHLKCFAASGLEFDCYGGGLSKINTPLLTPLKLSLEEWSTKPTNDSYGLFAVVMHSGITISSGHYTASVKVTDLNSLELDKGNFVVDQMCEIGKPEPLNEEEARGVVENYNDEEVSIRVGGNTQPSKVLNKKNVEAIGLLGGQKSKADYELYNKASNPDKVASTAFAENRNSETSDTTGTHESDRNKESSDQTGINISGFENKISYVVQSLKEYEGKWLLFDDSEVKVTEEKDFLNSLSPSTSPTSTPYLLFYKKL
B3: USP1 with N-terminal His tag, amino acids 670-71 changed from GG to AA (non-cleavable), purified from Sf9 cells (protein)
chain: MPGVIPSESNGLSRGSPSKKNRLSLKFFQKKETKRALDFTDSQENEEKASEYRASEIDQVVPAAQSSPINCEKRENLLPFVGLNNLGNTCYLNSILQVLYFCPGFKSGVKHLFNIISRKKEALKDEANQKDKGNCKEDSLASYELICSLQSLIISVEQLQASFLLNPEKYTDELATQPRRLLNTLRELNPMYEGYLQHDAQEVLQCILGNIQETCQLLKKEEVKNVAELPTKVEEIPHPKEEMNGINSIEMDSMRHSEDFKEKLPKGNGKRKSDTEFGNMKKKVKLSKEHQSLEENQRQTRSKRKATSDTLESPPKIIPKYISENESPRPSQKKSRVKINWLKSATKQPSILSKFCSLGKITTNQGVKGQSKENECDPEEDLGKCESDNTTNGCGLESPGNTVTPVNVNEVKPINKGEEQIGFELVEKLFQGQLVLRTRCLECESLTERREDFQDISVPVQEDELSKVEESSEISPEPKTEMKTLRWAISQFASVERIVGEDKYFCENCHHYTEAERSLLFDKMPEVITIHLKCFAASGLEFDCYGGGLSKINTPLLTPLKLSLEEWSTKPTNDSYGLFAVVMHSGITISSGHYTASVKVTDLNSLELDKGNFVVDQMCEIGKPEPLNEEEARGVVENYNDEEVSIRVGGNTQPSKVLNKKNVEAIGLLAAQKSKADYELYNKASNPDKVASTAFAENRNSETSDTTGTHESDRNKESSDQTGINISGFENKISYVVQSLKEYEGKWLLFDDSEVKVTEEKDFLNSLSPSTSPTSTPYLLFYKKL
B4: native USP1 complex purified from HeLa nuclear extract (protein)
chain 1: MPGVIPSESNGLSRGSPSKKNRLSLKFFQKKETKRALDFTDSQENEEKASEYRASEIDQVVPAAQSSPINCEKRENLLPFVGLNNLGNTCYLNSILQVLYFCPGFKSGVKHLFNIISRKKEALKDEANQKDKGNCKEDSLASYELICSLQSLIISVEQLQASFLLNPEKYTDELATQPRRLLNTLRELNPMYEGYLQHDAQEVLQCILGNIQETCQLLKKEEVKNVAELPTKVEEIPHPKEEMNGINSIEMDSMRHSEDFKEKLPKGNGKRKSDTEFGNMKKKVKLSKEHQSLEENQRQTRSKRKATSDTLESPPKIIPKYISENESPRPSQKKSRVKINWLKSATKQPSILSKFCSLGKITTNQGVKGQSKENECDPEEDLGKCESDNTTNGCGLESPGNTVTPVNVNEVKPINKGEEQIGFELVEKLFQGQLVLRTRCLECESLTERREDFQDISVPVQEDELSKVEESSEISPEPKTEMKTLRWAISQFASVERIVGEDKYFCENCHHYTEAERSLLFDKMPEVITIHLKCFAASGLEFDCYGGGLSKINTPLLTPLKLSLEEWSTKPTNDSYGLFAVVMHSGITISSGHYTASVKVTDLNSLELDKGNFVVDQMCEIGKPEPLNEEEARGVVENYNDEEVSIRVGGNTQPSKVLNKKNVEAIGLLGGQKSKADYELYNKASNPDKVASTAFAENRNSETSDTTGTHESDRNKESSDQTGINISGFENKISYVVQSLKEYEGKWLLFDDSEVKVTEEKDFLNSLSPSTSPTSTPYLLFYKKL
chain 2: not shown
B5: USP1/UAF1 complex (heterodimer) co-expressed in and purified from Sf9 cells, Example 1 (protein)
chain 1: MPGVIPSESNGLSRGSPSKKNRLSLKFFQKKETKRALDFTDSQENEEKASEYRASEIDQVVPAAQSSPINCEKRENLLPFVGLNNLGNTCYLNSILQVLYFCPGFKSGVKHLFNIISRKKEALKDEANQKDKGNCKEDSLASYELICSLQSLIISVEQLQASFLLNPEKYTDELATQPRRLLNTLRELNPMYEGYLQHDAQEVLQCILGNIQETCQLLKKEEVKNVAELPTKVEEIPHPKEEMNGINSIEMDSMRHSEDFKEKLPKGNGKRKSDTEFGNMKKKVKLSKEHQSLEENQRQTRSKRKATSDTLESPPKIIPKYISENESPRPSQKKSRVKINWLKSATKQPSILSKFCSLGKITTNQGVKGQSKENECDPEEDLGKCESDNTTNGCGLESPGNTVTPVNVNEVKPINKGEEQIGFELVEKLFQGQLVLRTRCLECESLTERREDFQDISVPVQEDELSKVEESSEISPEPKTEMKTLRWAISQFASVERIVGEDKYFCENCHHYTEAERSLLFDKMPEVITIHLKCFAASGLEFDCYGGGLSKINTPLLTPLKLSLEEWSTKPTNDSYGLFAVVMHSGITISSGHYTASVKVTDLNSLELDKGNFVVDQMCEIGKPEPLNEEEARGVVENYNDEEVSIRVGGNTQPSKVLNKKNVEAIGLLAAQKSKADYELYNKASNPDKVASTAFAENRNSETSDTTGTHESDRNKESSDQTGINISGFENKISYVVQSLKEYEGKWLLFDDSEVKVTEEKDFLNSLSPSTSPTSTPYLLFYKKL
chain 2: not shown

Tests used:
[1] = target: Flag-HA-tagged UAF1, expressed in and purified from HeLa cells
[2] = target: Ubiquitin-Vinyl Sulfone (U-202; Boston Biochem)
[3] = target: monoubiquitinated Flag-HA-tagged FANCD2 protein purified from hydroxyurea-treated HeLa cells, Q9BXW9
[4] = target: UAF1 with engineered C-terminal Strep II tag, purified from Sf9 cells
[5] = target: Strep-tagged UAF1-ΔWD2 purified from Sf9 insect cells
[6] = target: T1, Ubiquitin-7-amido-4-methylcoumarin (U-550; Boston Biochem)
[7] = target: T1, Ubiquitin-7-amido-4-methylcoumarin …; test: Ub-AMC hydrolysis at 20 nM USP1, Lineweaver-Burk plot; standard deviation in brackets
[8] = target: T1, Ubiquitin-7-amido-4-methylcoumarin …; test: Ub-AMC hydrolysis at 2 nM USP1/UAF1 complex, Lineweaver-Burk plot; standard deviation in brackets

| Protein | mobility shift in SDS-PAGE with Ub-VS [2] | in vitro deubiquitination of Ub-FANCD2 [3] | Km [6] | Ub-AMC cleavage, fluorescence against time, 10 nM protein [6] | kcat [6] | other results |
| --- | --- | --- | --- | --- | --- | --- |
| B1 | there was a shift of both the full length USP1 and the N-terminal cleavage product in the presence of Ub-VS |  |  |  |  | amount of the N-terminal cleavage product of c-Myc-USP1 after cycloheximide in reticulocyte lysate (anti-c-Myc immunoblot) [1]: the e-USP1-N-Term. band (about 97 kDa) stays faint from 0 min to 2h in Control and grows stronger from 0 min to 2h with + UAF1 |
| B2 | there was a shift of both the full length USP1 and the N-terminal cleavage product in the presence of Ub-VS |  |  |  |  |  |
| B3 |  | USP1 protein alone was unable to deubiquitinate Ub-FANCD2 | decreasing the Km from 1.4 µM to 0.7 µM | rises slowly and almost linearly from about 130 at 0 min to about 400 at 40 min | 0.014 s⁻¹ | Ub-AMC cleavage by 2 nM USP1, fluorescence against time, 2 nM UAF1 or buffer added during the run [4]: both traces run together from about 130 to about 165 until about 12 min; then + UAF1 steps to about 245 and rises at once in a straight line beyond 500 at about 23 min, while Control steps to about 185 and reaches only about 215 at 25 min; Ub-AMC cleavage by 10 nM USP1, fluorescence against time, 10 nM UAF1 added during the run [4]: the grey trace USP1 + UAF1 runs with the USP1 traces from about 120 to about 200 until about 12 min, then steps to about 310 and rises in a straight line to about 1200 at about 23 min; kcat on Ub-AMC, UAF1/USP1 complex against USP1 alone [4]: augmenting the kcat value 18-fold; kcat/Km on Ub-AMC, UAF1/USP1 complex against USP1 alone [4]: the kcat/Km is 35-fold higher for the UAF1/USP1 complex compared to USP1 alone; substrate turnover of Ubiquitin-AMC after adding UAF1 in an equimolar amount to USP1 [4]: Addition of UAF1 resulted in an instantaneous and robust increase of substrate turnover; Ub-AMC cleavage by 10 nM USP1, fluorescence against time, 10 nM UAF1-ΔWD2 added during the run [5]: no stimulation: the two dark traces (USP1 and USP1 + UAF1-ΔWD2) lie on one another, step to about 240 at about 12 min and keep their slope, reaching about 300 at about 23 min; Ub-AMC cleavage, fluorescence against time, 10 nM USP1 alone [6]: slow rise from about 120 at 0 min to about 300 at about 23 min, on one line with USP1 + UAF1-ΔWD2; rate of Ub-AMC conversion V (nM/s) against [S] (µM), 20 nM USP1 [6]: V rises from about 0.09 nM/s at 0.6 µM to about 0.2 nM/s at 3 µM; the fitted curve still rises, no plateau; Km [7]: 1.4 µM |
| B4 | a mobility shift of both full length and the N-terminal cleavage product of USP1 was observed, demonstrating enzymatic activity of both polypeptides | the USP1 complex could support this reaction |  |  |  |  |
| B5 |  | the UAF11USP1 complex readily deubiquitinated the substrate; about half of the substrate was deubiquitinated | decreasing the Km from 1.4 µM to 0.7 µM | rises steeply from about 350 at 0 min to a plateau of about 2000 reached at about 15 min | 0.26 s⁻¹ | Km [8]: 0.7 µM; rate of Ub-AMC conversion V (nM/s) against [S] (µM), 2 nM USP1/UAF1 complex [6]: V rises from about 0.19 nM/s at about 0.4 µM to about 0.43 nM/s at 3 µM; the fitted curve flattens but still rises, no plateau |
